Data published in PMC1888833 (Nucleic Acids Research, 2007).
Residue numbers refer to the chain shown, from its start.

B1: HpDnaBDelN3 (N-terminal deletion mutant N3 of HpDnaB, lacking 174 N-terminal residues) (domain or fragment)
chain: EVTGIPTGFVQLDNYTSGFNKGSLVIIGARPSMGKTSLMMNMVLSALNDDRGVAVFSLEMSAEQLALRALSDLTSINMHDLESGRLDDDQWENLAKCFDHLSQKKLFFYDKSYVRIEQIRLQLRKLKSQHKELGIAFIDYLQLMSGSKATKERHEQIAEISRELKTLARELEIPIIALVQLNRSLENRDDKRPILSDIKDSGGIEQDADIVLFLYRGYIYQMRAEDNKIDKLKKEGKIEEAQELYLKVNEERRIHKQNGSIEEAEIIVAKNRNGATGTVYTRFNAPFTRYEDMPIDSHLEEGQETKVDYDIVTT
B2: HpDnaBDelN2 (N-terminal deletion mutant N2 of HpDnaB, lacking 133 N-terminal residues) (domain or fragment)
chain: AVEREVYALLNGSTIEGFRNIKEVLESAMDLITENQRKGSLEVTGIPTGFVQLDNYTSGFNKGSLVIIGARPSMGKTSLMMNMVLSALNDDRGVAVFSLEMSAEQLALRALSDLTSINMHDLESGRLDDDQWENLAKCFDHLSQKKLFFYDKSYVRIEQIRLQLRKLKSQHKELGIAFIDYLQLMSGSKATKERHEQIAEISRELKTLARELEIPIIALVQLNRSLENRDDKRPILSDIKDSGGIEQDADIVLFLYRGYIYQMRAEDNKIDKLKKEGKIEEAQELYLKVNEERRIHKQNGSIEEAEIIVAKNRNGATGTVYTRFNAPFTRYEDMPIDSHLEEGQETKVDYDIVTT
B3: Helicobacter pylori DnaB helicase, wild-type, full-length (enzyme, Helicobacter pylori (strain 26695), UniProt O25916 1-488, looked up)
chain: MDHLKHLQQLQNIERIVLSGIVLANHKIEEVHSVLEPSDFYYPPNGLFFEIALKLHEEDCPIDENFIRQKMPKDKQIKEEDLVAIFAASPIDNIEAYVEEIKNASIKRKLFGLANTIREQALESAQKSSDILGAVEREVYALLNGSTIEGFRNIKEVLESAMDLITENQRKGSLEVTGIPTGFVQLDNYTSGFNKGSLVIIGARPSMGKTSLMMNMVLSALNDDRGVAVFSLEMSAEQLALRALSDLTSINMHDLESGRLDDDQWENLAKCFDHLSQKKLFFYDKSYVRIEQIRLQLRKLKSQHKELGIAFIDYLQLMSGSKATKERHEQIAEISRELKTLARELEIPIIALVQLNRSLENRDDKRPILSDIKDSGGIEQDADIVLFLYRGYIYQMRAEDNKIDKLKKEGKIEEAQELYLKVNEERRIHKQNGSIEEAEIIVAKNRNGATGTVYTRFNAPFTRYEDMPIDSHLEEGQETKVDYDIVTT
B4: HpDnaBMut (ATP binding site mutant, R204 to C in the WALKER A domain) (enzyme, Helicobacter pylori (strain 26695), UniProt O25916 1-488, looked up)
chain: B3 chain with R204C

Columns and labels:
HpDnaBWt = HpDnaBWt (Helicobacter pylori, UniProt O25916); settings: labelled compound; pH 7.5, 4 °C, UV 254 nm
HpDnaBDelN3 = HpDnaBDelN3 (Helicobacter pylori, UniProt O25916); settings: labelled compound; pH 7.5, 4 °C, UV 254 nm
SEC = molecular target: the molecule itself; experiment: SEC

| Molecule | UV cross-linking, SDS-PAGE, phosphorimager (HpDnaBWt) | UV cross-linking, SDS-PAGE, phosphorimager (HpDnaBDelN3) | stoichiometry N (SEC) |
| --- | --- | --- | --- |
| Nc1ncnc2c1ncn2[C@@H]1O[C@H](COP(=O)(O)OP(=O)(O)OP(=O)(O)O)[C@@H](O)[C@H]1O [∝-32PATP] | Wild-type, DelN2 and DelN3 showed ATP binding | Wild-type, DelN2 and DelN3 showed ATP binding | – |
| B1 | – | – | 2 |
| B2 | – | – | 6 |
| B3 | – | – | 6 |
| B4 | – | – | 6 |
